Six molecules from paper PMC5021521, “Coordinated recruitment of Spir actin nucleators and myosin V motors to Rab11 vesicle membranes” (eLife, 2016) can be followed below.

For assay [1], the system named is HeLa cells. The assay can be described thus: Subcellular localization by fluorescence microscopy. Type of assay: cell-based. Here is the method: HeLa cells were seeded on microscope cover glasses and transfected with Myc-epitope-tagged Spir-2 proteins and fluorescently-tagged MyoV and Rab11 proteins as described above. Cells were fixed with paraformaldehyde (3.7% in 1x PBS) for 20 min at 4°C and subsequently permeabilized using 0.2% Triton X-100 (in 1x PBS) for 3.5 min, room temperature. Cells were incubated with anti-c-Myc antibody (9E10, mouse monoclonal, 2 µg/ml, Santa Cruz Biotechnology; RRID: AB_627268) for 1 hr at room temperature and conjugated anti-mouse secondary antibodies (Cy5; from donkey, 3.25 µg/ml, Dianova (RRID: AB_2340820) and TRITC; from donkey, 3.125 µg/ml, Dianova (RRID: AB_2340767)) for 1 hr at room temperature avoiding exposure to light. Finally, cells were mounted on microscope slides with Mowiol and analyzed with a Leica AF6000LX fluorescence microscope, equipped with a Leica HCX PL APO 63x/1.3 GLYC objective and a Leica DFC350 FX digital camera (1392 × 1040 pixels, 6.45 × 6.45 µm pixel size). 3D stacks were recorded and processed with the Leica deconvolution software module. In case of the MyoVa autoregulation/activation experiments, we quantified the MyoVa expression levels. […] In order to clearly distinguish between vesicular and cytoplasmic MyoVa localization, we imaged either high or low expressing cells and determined the sum of pixel gray values per cell as a measure for the MyoVa expression levels. Based on that, we only used cells for the autoregulation analysis having a sum of pixel gray values less than 20 × 10^6 for the expression of GFP-MyoVa-D-FL. Images were recorded using the Leica LASX software and further processed with Adobe Photoshop and subsequently assembled with Adobe Illustrator.

For assay [2], the system named is Spir-2:MyoVa:Rab11 tripartite complex. The assay can be described thus: Analytical gel filtration. Particulars: Superdex 200 10/30; 50 mM Tris pH 8.0, 150 mM NaCl, 2 mM MgCl2, 2 mM TCEP. The assay is classed as binding, Homo sapiens. Here is the method: Complex formations were analyzed by analytical gel-filtration using Superdex 200 10/30 Increase column (GE Healthcare Life Sciences) and UV light absorbance at 280 nm and 260 nm and Visible light absorbance at 587 nm at flow rate of 0.75 ml/min in 50 mM Tris pH 8.0, 150 mM NaCl, 2 mM MgCl2, 2 mM TCEP buffer. Fractions of 500 µl were collected and analyzed by SDS-PAGE.
A 100 µl sample of His6-Rab11a-1-173-Q70L at 6 mg/ml, or of MyoVa-GTD at 5 mg/ml or of His6-mCherry-Spir-2-linker at 6 mg/ml were centrifuged at 10,000 x g for 10 min and injected into the column to monitor reference elution profiles of the individual proteins. The proteins were mixed pairwise to the same final concentrations and incubated 30 min at 4°C in a total volume of 100 µl. The two-component complexes (His6-mCherry-Spir-2-linker:MyoVa-GTD and MyoVa-GTD:His6-Rab11a-1-173-Q70L) were confirmed by the elution peak shifts and SDS-PAGE analysis. […] The tripartite His6-mCherry-Spir-2-linker:MyoVa-GTD:His6-Rab11a-1-173-Q70L complex was analyzed at the same concentration of the individual components and confirmed by SDS-PAGE.

For assay [3], the system named is AcGFP-MyoVa-GTD. The assay can be described thus: FLIM-FRET at vesicle membranes in HeLa cells. The assay is classed as cell-based, Mus musculus. As to conditions: AcGFP-MyoVa-GTD donor. The protocol:
Fluorescence lifetimes were imaged with a commercial FLIM upgrade kit (PicoQuant, Berlin, Germany) attached to a confocal microscope LSM 880 (Zeiss, Jena, Germany) using a 440 nm pulsed laser diode at 20 MHz repetition rate. The fluorescence was detected using the Big.2-unit (Zeiss) fed into the TimeHarp 260 photon counting board (PicoQuant). Time series of FLIM images were recorded until bright pixels accumulated at least 1000 photon events. Before pixel wise fitting (Symphotime, 64-bit, version 2, PicoQuant), a region of interest was defined manually by setting a threshold for selecting pixels of high intensity (100–300 photon events per pixel). Fitting employed an exponential two-component model to 20 ns of the decay without binning. Lifetime images contained the color coded, intensity weighted average in each pixel.
For an improved automated selection of vesicular structures in cells, we followed a previously established semi-automated approach ([Austen et al., 2015]). Briefly, confocal imaging was done using a Leica TCS SP5 X confocal microscope equipped with a pulsed white light laser (WLL, 80 MHz repetition rate; NKT Photonics, Birkerod, Denmark), a FLIM X16 TCSPC detector (LaVision Biotec, Bielefeld, Germany) and a 63x water objective (HCX PL APO CS, NA = 1.2). A band-pass filter 514/30 (AHF Analysentechnik, Tübingen, Germany) was used to block acceptor emitted photons. Data analysis includes manual selection of the cytoplasmic regions followed by a threshold algorithm, segmenting high intensity regions based on spatial signal changes at varying levels. The custom-written MATLAB program ([Austen et al., 2015]) calculates the average FRET efficiency E according to E = 1−τDA/τD
with τD as the mean donor lifetime τDA as mean donor lifetime in presence of an acceptor fluorophore. E represents the entire ROI of a single cell. Here, fitting employed an exponential one-component fit to 10 ns of decay; the first 0.5 ns were omitted due to the instrumental response. […]

Assay [4] has as its target T1, MyoVa-GTD (Homo sapiens, UniProt Q9Y4I1).
T1 construct: aa 1461 - 1853 (BamHI / XhoI); His6 (6xHis) with rTEV site (N, cleaved yes); made in house; host or cells: Escherichia coli BL21(DE3) or BL21-CodonPlus-RILP
The assay can be described thus: Surface plasmon resonance, Rab11a captured. The assay is classed as binding. Here is the method: The assays were carried out at 25°C in buffer (50 mM Hepes pH 7.5, 100 mM NaCl, 2 mM MgCl2, 1 mM TCEP). 200–250 resonance units (RU; 1RU ≈ 1 pg × mm^−2) of Rab11a-Q70L(GTP) or Rab11-wt(GDP) were captured through their His6-tag on the surface of a NTA sensorchip using a Biacore 2000 instrument (GE Healthcare Life Sciences). MyoVa-GTD or MyoVb-GTD (10 nM–5 µM) were then injected over the tethered Rabs for one minute at a flow rate of […]. The surface was regenerated with a 2-min 0.3 M EDTA incubation and a 1-min 0.1% SDS wash. The real-time interaction profiles were double referenced using the Scrubber 2.0 software (BioLogic Software, Campbell, Australia), both the signals from a reference surface (with a non-relevant protein captured on NTA) and from blank experiments using buffer instead of MyoV-GTD were subtracted. The MyoV-GTD concentration-dependence of the steady-state SPR signals was then analyzed to determine the dissociation equilibrium constants (Kd) of the different complexes using the numerical integration algorithm software Biaevaluation 4.1. Each experiment (10 point 2-fold dilution concentration series each) was repeated in triplicate, yielding mean Kd values and standard errors (SEM).

T1 sequence (Q9Y4I1 1463-1855): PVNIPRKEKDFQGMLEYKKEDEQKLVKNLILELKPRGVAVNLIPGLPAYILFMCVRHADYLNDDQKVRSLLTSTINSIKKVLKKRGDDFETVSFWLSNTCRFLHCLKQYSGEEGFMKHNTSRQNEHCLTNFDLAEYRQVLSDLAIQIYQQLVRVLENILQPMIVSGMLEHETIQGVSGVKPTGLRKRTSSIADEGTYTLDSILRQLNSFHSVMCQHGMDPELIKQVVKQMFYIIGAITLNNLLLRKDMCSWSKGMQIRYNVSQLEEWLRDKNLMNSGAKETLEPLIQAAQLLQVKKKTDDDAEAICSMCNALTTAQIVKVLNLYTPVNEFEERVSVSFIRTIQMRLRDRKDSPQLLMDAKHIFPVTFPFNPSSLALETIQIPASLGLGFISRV

B1: Myc-Spir-2-KIND-WH2-GTBM: Myc-hs-Spir2-KIND-WH2-GTBM aa 2 - 437 (protein, UniProt Q8WWL2 2-437, looked up, fragment)
chain: ARAGSCGGAAAGAGRPEPWELSLEEVLKAYEQPLNEEQAWAVCFQGCRGLRGSPGRRLRDTGDLLLRGDGSVGAREPEAAEPATMVVPLASSEAQTVQSLGFAIYRALDWGLDESEERELSPQLERLIDLMANNDSEDSGCGAADEGYGGPEEEEEAEGVPRSVRTFAQAMRLCAARLTDPRGAQAHYQAVCRALFVETLELRAFLARVREAKEMLQKLREDEPHLETPRAELDSLGHTDWARLWVQLMRELRRGVKLKKVQEQEFNPLPTEFQLTPFEMLMQDIRARNYKLRKVMVDGDIPPRVKKDAHELILDFIRSRPPLKQVSERRLRPLPPKQRSLHEKILEEIKQERRLRPVRGEGWAARGFGSLPCILNACSGDAKSTSCINLSVTDAGGSAQRPRPRVLLKAPTLAEMEEMNTSEEEESPCGEVTLKR
modifications: Myc tag
Consider B1, for which the “subcellular localization in words” value in assay [1] (co-expression of eGFP-MyoVa-FL and N-terminal Spir-2 fragment) was “both proteins localize to vesicle membranes”; in assay [1] (single expression), “even cytoplasmic and nuclear localization”.

B2: Rab11a-Q70L: hs-Rab11a-Q70L aa 1 - 173, GTP-locked mutant (protein)
chain: MGTRDDEYDYLFKVVLIGDSGVGKSNLLSRFTRNEFNLESKSTIGVEFATRSIQVDGKTIKAQIWDTAGLERYRAITSAYYRGAVGALLVYDIAKHLTYENVERWLKELRDHADSNIVIMLVGNKSDLRHLRAVPTDEARAFAEKNGLSFIETSALDSTNVEAAFQTILTEIY
modifications: left off: His6, N-terminal, kept
notes: hs-Rab11a-Q70L aa 1 - 173, GTP-locked mutant
For B2, the “co-elution in gel filtration in words” value in assay [2] is reported as “co-elution of all three proteins”.

B3: mStrawberry-Spir-2-GTBM-SB-FYVE: mStrawberry-hs-Spir2-GTBM-SB-FYVE aa 361 - 714 (protein)
chain: GEGWAARGFGSLPCILNACSGDAKSTSCINLSVTDAGGSAQRPRPRVLLKAPTLAEMEEMNTSEEEESPCGEVTLKRDRSFSEHDLAQLRSEVASGLQSATHPPGGTEPPRPRAGSAHVWRPGSRDQGTCPASVSDPSHPLLSNRGSSGDRPEASMTPDAKHLWLEFSHPVESLALTVEEVMDVRRVLVKAEMEKFLQNKELFSSLKKGKICCCCRAKFPLFSWPPSCLFCKRAVCTSCSIKMKMPSKKFGHIPVYTLGFESPQRVSAAKTAPIQRRDIFQSLQGPQWQSVEEAFPHIYSHGCVLKDVCSECTSFVADVVRSSRKSVDVLNTTPRRSRQTQSLYIPNTRTLDFK
modifications: left off: mStrawberry, end not stated, kept
As for B3, in assay [3], the “fluorescence lifetime / FRET result in words” value is listed as “able to reduce the fluorescence lifetime”.

B4: Spir-2-GTBM-SB-FYVE-LALA: mStrawberry-hs-Spir2-GTBM-SB-FYVE-L408A,L409A (protein)
chain: GEGWAARGFGSLPCILNACSGDAKSTSCINLSVTDAGGSAQRPRPRVAAKAPTLAEMEEMNTSEEEESPCGEVTLKRDRSFSEHDLAQLRSEVASGLQSATHPPGGTEPPRPRAGSAHVWRPGSRDQGTCPASVSDPSHPLLSNRGSSGDRPEASMTPDAKHLWLEFSHPVESLALTVEEVMDVRRVLVKAEMEKFLQNKELFSSLKKGKICCCCRAKFPLFSWPPSCLFCKRAVCTSCSIKMKMPSKKFGHIPVYTLGFESPQRVSAAKTAPIQRRDIFQSLQGPQWQSVEEAFPHIYSHGCVLKDVCSECTSFVADVVRSSRKSVDVLNTTPRRSRQTQSLYIPNTRTLDFK
modifications: left off: mStrawberry, end not stated, kept
notes: mStrawberry-hs-Spir2-GTBM-SB-FYVE-L408A,L409A
Regarding B4, in assay [3], the “fluorescence lifetime / FRET result in words” value is given as “did not alter the lifetime”.

B5: Rab11GDP: Rab11-wt(GDP) captured through its His6-tag (protein)
chain: MGTRDDEYDYLFKVVLIGDSGVGKSNLLSRFTRNEFNLESKSTIGVEFATRSIQVDGKTIKAQIWDTAGQERYRAITSAYYRGAVGALLVYDIAKHLTYENVERWLKELRDHADSNIVIMLVGNKSDLRHLRAVPTDEARAFAEKNGLSFIETSALDSTNVEAAFQTILTEIYRIVS
modifications: left off: His6, N-terminal, kept
notes: Rab11-wt(GDP) captured through its His6-tag
Turning to B5, in assay [4] (MyoVa-GTD 10 nM–5 µM over captured Rab11a-Q70L(GTP) or Rab11-wt(GDP), 50 mM Hepes pH 7.5, 100 mM NaCl, 2 mM MgCl2, 1 mM TCEP, 25°C, steady state, mean ± SEM, N = 3, read-out: dissociation equilibrium constant (Kd)), the Kd stood at 2620 ± 490 nM. In addition, the affinity in words result in assay [4] (Rab11-GDP for MyoVa) is “relatively high affinity”.

B6: mStrawberry-Spir-2-SB-FYVE: mStrawberry-hs-Spir2-SB-FYVE aa 438 - 714 (protein)
chain: DRSFSEHDLAQLRSEVASGLQSATHPPGGTEPPRPRAGSAHVWRPGSRDQGTCPASVSDPSHPLLSNRGSSGDRPEASMTPDAKHLWLEFSHPVESLALTVEEVMDVRRVLVKAEMEKFLQNKELFSSLKKGKICCCCRAKFPLFSWPPSCLFCKRAVCTSCSIKMKMPSKKFGHIPVYTLGFESPQRVSAAKTAPIQRRDIFQSLQGPQWQSVEEAFPHIYSHGCVLKDVCSECTSFVADVVRSSRKSVDVLNTTPRRSRQTQSLYIPNTRTLDFK
modifications: left off: mStrawberry, end not stated, kept
Consider B6, for which the “fluorescence lifetime / FRET result in words” value in assay [3] is “did not alter the lifetime”.
